Measured values published in article PMC2679042 (2009).

How the values were obtained:
proMMP-2 (Homo sapiens) = proMMP-2 (Homo sapiens) (UniProt P08253); settings: cited from earlier work
proMMP-2 = biological target: T1, proMMP-2 (Homo sapiens, UniProt P08253); assay: tryptophan fluorescence quenching
T1 chain: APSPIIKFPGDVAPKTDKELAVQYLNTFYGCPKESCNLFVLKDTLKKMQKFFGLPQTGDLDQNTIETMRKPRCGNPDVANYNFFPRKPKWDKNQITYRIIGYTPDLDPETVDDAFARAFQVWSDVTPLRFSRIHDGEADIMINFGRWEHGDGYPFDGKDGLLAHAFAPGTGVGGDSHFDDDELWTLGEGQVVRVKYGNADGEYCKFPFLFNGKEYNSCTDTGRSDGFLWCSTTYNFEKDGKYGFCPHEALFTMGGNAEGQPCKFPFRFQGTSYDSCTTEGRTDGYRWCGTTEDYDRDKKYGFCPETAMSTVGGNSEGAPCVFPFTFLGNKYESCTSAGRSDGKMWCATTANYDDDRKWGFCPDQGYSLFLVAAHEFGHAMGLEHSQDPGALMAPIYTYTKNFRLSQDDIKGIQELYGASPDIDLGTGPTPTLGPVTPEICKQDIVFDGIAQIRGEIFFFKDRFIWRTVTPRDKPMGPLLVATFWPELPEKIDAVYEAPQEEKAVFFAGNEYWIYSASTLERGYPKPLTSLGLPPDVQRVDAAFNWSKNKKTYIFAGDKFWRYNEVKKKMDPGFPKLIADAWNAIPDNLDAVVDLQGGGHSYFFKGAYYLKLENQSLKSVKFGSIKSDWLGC

## bone sialoprotein (from UniProt P21815)
proMMP-2 (Homo sapiens)
  Kd: 2.9 nM

B1: bone sialoprotein (protein)
chain: FSMKNLHRRVKIEDSEENGVFKYRPRYYLYKHAYFYPHLKRFPVQGSSDSSEENGDDSSEEEEEEEETSNEGENNEESNEDEDSEAENTTLSATTLGYGEDATPGTGYTGLAAIQLPKKAGDITNKATKEKESDEEEEEEEEGNENEESEAEVDENEQGINGTSTNSTEAENGNGSSGGDNGEEGEEESVTGANAEDTTETGRQGKGTSKTTTSPNGGFEPTTPPQVYRTTSPPFGKTTTVEYEGEYEYTGANEYDNGYEIYESENGEPRGDNYRAYEDEYSYFKGQGYDGYDGQNYYHHQ
proMMP-2
  Kd: 270 nM
